Measurements reported in article PMC9387928.

Target: T1, ZccR (MerR-type regulator) (Streptococcus mutans UA159) (UniProt Q8DRZ5)
T1 sequence: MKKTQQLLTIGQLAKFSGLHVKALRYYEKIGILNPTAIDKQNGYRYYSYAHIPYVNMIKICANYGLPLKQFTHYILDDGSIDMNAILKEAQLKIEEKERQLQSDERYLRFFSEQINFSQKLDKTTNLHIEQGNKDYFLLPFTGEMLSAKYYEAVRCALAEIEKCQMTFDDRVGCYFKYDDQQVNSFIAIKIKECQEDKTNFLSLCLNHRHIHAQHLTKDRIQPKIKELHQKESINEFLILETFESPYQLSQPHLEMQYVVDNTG
Test: EMSA
Conditions: 10 mM Tris, 50 mM KCl, 1 ug poly dI-dC, 1 mM DTT, 5% glycerol, pH 7.5; 20 fmol probe in 20 ul; 6% native PAGE at 4 C; binding temperature not stated

## CACAAATAGCTTGACCTTCCCTTTAAGGTATAGTTTATAGTTAAACTATAACAAGGTTTGCTAAAAAATGCAATGATTTCTGTATTGGAAAGGAGCCAATCATGTCTAAAGGTGATAAACAAAAGAAAAGGCTTCAAAAAATGACTTGGCTTTCAATATG (double strand) [zccE-zccR intergenic region (IGR), 160 bp]
  binding: binds
